Here are results for one molecule from publication PMC11794977, “Inhibitory Potential and Binding Thermodynamics of Scyllatoxin‐Based BH3 Domain Mimetics Targeting Repressor BCL2 Proteins” (Journal of Molecular Recognition, 2025).

In test [1] the target is T1, Bcl‐2‐ΔTM (recombinant His‐tagged Bcl‐2 without its transmembrane domain).
T1 construct: also called Bcl‐2 (proper); Bcl‐2‐ΔTM proteins
Description: fluorescence polarisation; competition: 100 nM Bcl‐2‐ΔTM and 25 nM ^FluBax‐BH3^ΔB pre‐incubated 1 h, then acetylated peptide (100 μM to 2.3 pM) added for 1 h; binding buffer (50 mM Tris, 100 mM NaCl, pH 8.0); ambient temperature; triplicate. The conditions noted are these: both partners purified. (In general: Fluorescence polarisation rises when a labelled molecule tumbles more slowly, as on binding a larger partner.)

Test [2] concerns the target T1, Bcl‐2‐ΔTM (recombinant His‐tagged Bcl‐2 …). Description: ITC; 200 μM acetylated peptide injected into 20 μM Bcl‐2‐ΔTM in the cell; binding buffer (50 mM Tris, 100 mM NaCl, pH 8.0); 25°C; one‐site model; Kd as reciprocal of Ka; triplicate. The following applies: both partners purified. A general note: In ITC the heat of successive injections is recorded.

B1: ^AcBax‐BH3^ΔB (peptide)
chain: STKKLSEXLKRIGDELDSNM
HELM: PEPTIDE1{[ac].S.T.K.K.L.S.E.[Abu].L.K.R.I.G.D.E.L.D.S.N.M.[am]}$$$$V2.0
SMILES: CC[C@H](NC(=O)[C@H](CCC(=O)O)NC(=O)[C@H](CO)NC(=O)[C@H](CC(C)C)NC(=O)[C@H](CCCCN)NC(=O)[C@H](CCCCN)NC(=O)[C@@H](NC(=O)[C@H](CO)NC(C)=O)[C@@H](C)O)C(=O)N[C@@H](CC(C)C)C(=O)N[C@@H](CCCCN)C(=O)N[C@@H](CCCNC(=N)N)C(=O)N[C@H](C(=O)NCC(=O)N[C@@H](CC(=O)O)C(=O)N[C@@H](CCC(=O)O)C(=O)N[C@@H](CC(C)C)C(=O)N[C@@H](CC(=O)O)C(=O)N[C@@H](CO)C(=O)N[C@@H](CC(N)=O)C(=O)N[C@@H](CCSC)C(N)=O)[C@@H](C)CC
For orientation: IC50 means the concentration needed to halve the response being measured. As a reminder, the Kd is the concentration at which binding is half-saturated. What is called stoichiometry N is a count of units in the complex or per binding partner. Turning to B1, the IC50 in test [1] was 0.141 µM. In addition, in test [2], the Kd was 0.191 µM, the dH is -22.7 kJ/mol and the “stoichiometry N” value was 0.93.
